From article PMC10115844, “The structural basis of tRNA recognition by arginyl-tRNA-protein transferase”

What was measured:
[1] = target: T1, scATE1 (arginyl-tRNA-protein transferase 1) (Saccharomyces cerevisiae) (UniProt P16639); assay: EMSA; conditions: EMSA: 20 mM Tris-HCl pH 7.5, 150 mM NaCl, 5 mM DTT, on ice (tRNAArg: 0.001% NP-40, 30 °C), MST: 10 mM Tris, 5 mM Na phosphate pH 7.0, 100 mM NaCl, 3 mM DTT …
T1 sequence: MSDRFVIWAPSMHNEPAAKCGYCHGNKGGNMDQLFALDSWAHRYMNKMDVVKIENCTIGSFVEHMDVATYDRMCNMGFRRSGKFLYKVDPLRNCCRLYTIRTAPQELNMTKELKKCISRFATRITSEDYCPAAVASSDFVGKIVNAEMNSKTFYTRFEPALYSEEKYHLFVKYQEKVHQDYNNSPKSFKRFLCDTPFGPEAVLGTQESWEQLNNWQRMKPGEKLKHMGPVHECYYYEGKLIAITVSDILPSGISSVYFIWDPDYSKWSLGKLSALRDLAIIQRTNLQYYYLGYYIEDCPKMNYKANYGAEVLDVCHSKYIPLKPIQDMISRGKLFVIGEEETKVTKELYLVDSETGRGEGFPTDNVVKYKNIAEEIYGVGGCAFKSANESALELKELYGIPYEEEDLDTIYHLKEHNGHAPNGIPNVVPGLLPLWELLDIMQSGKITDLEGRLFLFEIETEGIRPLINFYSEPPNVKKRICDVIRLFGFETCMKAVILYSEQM

[2] = target: T2, scATE1 (arginyl-tRNA-protein transferase 1) (Saccharomyces cerevisiae, UniProt P16639 1-503); assay: MST competition; displacement of FAM-DNA, 30 µM ATE1; EMSA: 20 mM Tris-HCl pH 7.5, 150 mM NaCl, 5 mM DTT, on ice (tRNAArg: 0.001% NP-40, 30 °C); MST: 10 mM Tris, 5 mM Na phosphate pH 7.0, 100 mM NaCl, 3 mM DTT, 0.08% Tween-20; fluorescence: 20 mM Tris pH 7.5, 125 mM NaCl, 3 mM DTT, 27 °C; conditions: protein: recombinant; tags: N-terminal GST (pGEX 6p-1), cleaved with PreScission; label: none (SYBR green stain); hairpin
T2 sequence: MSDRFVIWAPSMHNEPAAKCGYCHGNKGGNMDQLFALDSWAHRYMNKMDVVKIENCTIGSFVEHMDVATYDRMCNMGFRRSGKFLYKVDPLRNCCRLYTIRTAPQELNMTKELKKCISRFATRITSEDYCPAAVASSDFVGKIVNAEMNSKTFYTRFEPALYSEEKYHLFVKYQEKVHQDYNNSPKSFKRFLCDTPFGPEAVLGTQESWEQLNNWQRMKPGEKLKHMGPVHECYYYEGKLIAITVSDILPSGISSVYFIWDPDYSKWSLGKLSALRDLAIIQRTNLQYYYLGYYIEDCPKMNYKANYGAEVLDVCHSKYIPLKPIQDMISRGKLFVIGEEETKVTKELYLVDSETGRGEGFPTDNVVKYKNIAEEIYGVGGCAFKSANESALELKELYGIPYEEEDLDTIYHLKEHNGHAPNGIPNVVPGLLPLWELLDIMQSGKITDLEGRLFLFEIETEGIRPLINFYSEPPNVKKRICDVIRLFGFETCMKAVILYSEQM

[3] = target: T2, scATE1 (arginyl-tRNA-protein …); assay: cryoEM structure; co-purified complex, 3.7 Å map; EMD-29638; EMSA: 20 mM Tris-HCl pH 7.5, 150 mM NaCl, 5 mM DTT, on ice (tRNAArg: 0.001% NP-40, 30 °C); MST: 10 mM Tris, 5 mM Na phosphate pH 7.0, 100 mM NaCl, 3 mM DTT, 0.08% Tween-20; fluorescence: 20 mM Tris pH 7.5, 125 mM NaCl, 3 mM DTT, 27 °C; conditions: protein: recombinant; tags: N-terminal GST (pGEX 6p-1), cleaved with PreScission; label: none; tRNA cloverleaf

For E. coli tRNALys acceptor arm, the Kd ([1]; smeary bands, possibly non-specific) was 4000 nM.

“full-length tRNALys, in vitro transcribed” was tested, and the binding signal (fold weaker than tRNAArg) ([1]; 0.25 µM tRNA, affinity similar to acceptor arm alone) was 20.

In the case of human tRNAArg A + T arms, the binding signal (fold higher affinity from A + T arms) [1] is reported as 4.

In the case of human tRNAArg acceptor (A) arm, the Kd ([1]; 2-fold stronger than E. coli acceptor arm) is reported as 1500 nM.

For human tRNAArg, in vitro transcribed, the Kd ([1]; 30 °C, 0.001% NP-40, 1 nM RNA, apparent Kd) was 155 nM.

Work on GCAUCCGCUACGAACGGAUGCACCA (structured_RNA) [E. coli tRNAArg acceptor arm miniRNA hairpin] yielded a Ki [2] of about 3.6 µM.

B1: tRNAArg (argU) in the cryoEM complex (structured_RNA)
RNA: GCGCCCUUAGCUCAGUUGGAUAGAGCAACGACCUUCUAAGUCGUGGGCCGCAGGUUCGAAUCCUGCAGGGCGCGCCA
modifications: native modifications possible, not stated
B1: binds [3].
